Assay results from patent US7127357.

How the values were obtained:
[1] = biological target: YpSPTpSPS (CTD-S2/S5), doubly phosphorylated CTD peptide (human); experiment: fluorescence anisotropy
[2] = biological target: YpSPTSPS (CTD-S2), rhodamine-labeled (human); experiment: fluorescence anisotropy, labeled peptide constant, protein varied
[3] = biological target: YLGpSPI (Cdc25c-S168), rhodamine-labeled (human); experiment: as above
[4] = biological target: LYRpSPS (Cdc25c-S214), rhodamine-labeled (human); experiment: as above
[5] = biological target: VPRpTPV (Cdc25c-T48), rhodamine-labeled (human); experiment: as above
[6] = biological target: STSpTPR (Myt1-T455), rhodamine-labeled (human); experiment: as above
[7] = biological target: PPGpSPP (Myt1-S416), rhodamine-labeled (human); experiment: as above
[8] = biological target: YSPTpSPS (CTD-S5), rhodamine-labeled (human); experiment: as above
[9] = biological target: YpSPTpSPS (CTD-S2/S5), doubly phosphorylated CTD peptide (human); experiment: as above
[10] = biological target: PPApTPP (Myt1-T412), rhodamine-labeled (human); experiment: as above
[11] = biological target: WFYpSPFLE (Pintide), rhodamine-labeled; experiment: as above
[12] = biological target: GSSpSPV (Wee1-S123), rhodamine-labeled (human); experiment: as above

fold reduction in binding affinity (against wild type Pin1) [1] | Kd [2] | Kd [3] | Kd [4] | Kd [5] | Kd [6] | Kd [7] | Kd [8] | Kd [9] | Kd [10] | Kd [11] | Kd [12] | Substance
6 fold |  |  |  |  |  |  |  |  |  |  |  | Pin1 Trp-34 to Phe mutant (from UniProt Q13526 1-163) (enzyme)
 | 61 µM | 69 µM | 47 µM | 4.9 µM | 46 µM | 80 µM | 30 µM | 10 µM | 12 µM | 17 µM | 73 µM | human Pin1 (full length, wild type) (from UniProt Q13526 1-163) (enzyme)
 |  |  |  |  |  |  |  | 390 µM |  | 86 µM |  | isolated PPIase domain of human Pin1 (from UniProt Q13526 50-163) (enzyme)
 | 110 µM | 91 µM | 72 µM | 7.7 µM | 39 µM | 126 µM | 34 µM | 34 µM | 15 µM | 44 µM |  | isolated WW domain of human Pin1 (from UniProt Q13526 1-39)
